Source: paper PMC2926618

Tests used:
GST-ZBTB4 zinc fingers [1] = target: T1, GST-ZBTB4 zinc fingers (Homo sapiens, UniProt Q9P1Z0 268-460); experiment: competition
T1 sequence: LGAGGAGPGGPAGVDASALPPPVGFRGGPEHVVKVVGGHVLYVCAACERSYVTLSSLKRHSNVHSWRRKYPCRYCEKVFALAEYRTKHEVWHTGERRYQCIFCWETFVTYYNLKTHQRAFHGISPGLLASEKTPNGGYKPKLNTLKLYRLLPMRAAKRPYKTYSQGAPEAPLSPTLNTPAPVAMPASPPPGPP

GST-ZBTB38 zinc fingers = target: T2, GST-ZBTB38 zinc fingers (Homo sapiens, UniProt Q8NAP3 418-612); experiment: EMSA
T2 sequence: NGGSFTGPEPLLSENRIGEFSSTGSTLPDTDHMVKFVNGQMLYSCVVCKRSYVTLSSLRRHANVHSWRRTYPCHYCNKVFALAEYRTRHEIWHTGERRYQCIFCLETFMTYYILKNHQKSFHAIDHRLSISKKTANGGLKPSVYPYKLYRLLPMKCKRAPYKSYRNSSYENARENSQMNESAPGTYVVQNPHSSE

GST-ZBTB4 zinc fingers [2] = target: T1, GST-ZBTB4 zinc fingers; experiment: EMSA
GST-Kaiso zinc fingers = target: T3, GST-Kaiso zinc fingers (Homo sapiens, UniProt Q86T24 454-638); experiment: EMSA
T3 sequence: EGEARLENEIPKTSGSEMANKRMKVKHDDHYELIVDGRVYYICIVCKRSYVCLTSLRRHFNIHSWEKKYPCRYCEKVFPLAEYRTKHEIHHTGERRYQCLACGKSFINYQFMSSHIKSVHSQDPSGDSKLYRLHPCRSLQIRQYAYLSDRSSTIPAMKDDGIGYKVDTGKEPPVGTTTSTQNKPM

GST-ZBTB4 E350A = target: T4, GST-ZBTB4 E350A (Homo sapiens, UniProt Q9P1Z0 268-460, E350A); experiment: EMSA
T4 sequence: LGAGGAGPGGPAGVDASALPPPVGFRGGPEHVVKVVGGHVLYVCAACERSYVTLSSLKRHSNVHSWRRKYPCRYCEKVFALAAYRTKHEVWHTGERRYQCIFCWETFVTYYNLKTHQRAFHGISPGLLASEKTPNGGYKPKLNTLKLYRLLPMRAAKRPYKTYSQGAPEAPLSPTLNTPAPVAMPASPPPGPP

GST-ZBTB4 K354A = target: T5, GST-ZBTB4 K354A (Homo sapiens, UniProt Q9P1Z0 268-460, K354A); experiment: EMSA
T5 sequence: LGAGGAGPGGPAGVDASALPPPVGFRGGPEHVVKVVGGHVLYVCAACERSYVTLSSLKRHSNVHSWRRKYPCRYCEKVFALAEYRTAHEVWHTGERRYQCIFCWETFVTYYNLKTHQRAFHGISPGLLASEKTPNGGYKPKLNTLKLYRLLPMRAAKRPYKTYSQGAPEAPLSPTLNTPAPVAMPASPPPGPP

GST-Kaiso E535A = target: T6, GST-Kaiso E535A (Homo sapiens, UniProt Q86T24 454-638, E535A); experiment: EMSA
T6 sequence: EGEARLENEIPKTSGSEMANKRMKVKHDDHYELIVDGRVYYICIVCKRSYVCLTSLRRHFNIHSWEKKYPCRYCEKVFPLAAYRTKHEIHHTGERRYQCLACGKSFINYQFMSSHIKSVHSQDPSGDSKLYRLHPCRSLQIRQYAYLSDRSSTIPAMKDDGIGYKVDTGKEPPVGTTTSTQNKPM

GST-ZBTB4 T376A = target: T7, GST-ZBTB4 T376A (Homo sapiens, UniProt Q9P1Z0 268-460, T376A); experiment: EMSA
T7 sequence: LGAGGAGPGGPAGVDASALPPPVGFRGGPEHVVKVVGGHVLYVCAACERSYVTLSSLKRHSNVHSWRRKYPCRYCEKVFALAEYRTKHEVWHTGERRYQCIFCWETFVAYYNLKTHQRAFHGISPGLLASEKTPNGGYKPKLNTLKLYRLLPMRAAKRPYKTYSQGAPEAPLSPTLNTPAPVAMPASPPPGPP

GST-ZBTB4 R326A = target: T8, GST-ZBTB4 R326A (Homo sapiens, UniProt Q9P1Z0 268-460, R326A); experiment: EMSA
T8 sequence: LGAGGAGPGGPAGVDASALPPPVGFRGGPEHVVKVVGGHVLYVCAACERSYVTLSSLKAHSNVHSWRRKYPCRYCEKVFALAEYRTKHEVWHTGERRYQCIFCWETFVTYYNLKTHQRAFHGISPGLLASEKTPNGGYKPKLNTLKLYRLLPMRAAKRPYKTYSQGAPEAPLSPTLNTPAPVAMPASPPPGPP

GST-ZBTB4 zinc fingers [3] = target: T1, GST-ZBTB4 zinc fingers; experiment: EMSA; remark: listed apart in the source
GST-ZBTB4 S323A = target: T9, GST-ZBTB4 S323A (Homo sapiens, UniProt Q9P1Z0 268-460, S323A); experiment: EMSA
T9 sequence: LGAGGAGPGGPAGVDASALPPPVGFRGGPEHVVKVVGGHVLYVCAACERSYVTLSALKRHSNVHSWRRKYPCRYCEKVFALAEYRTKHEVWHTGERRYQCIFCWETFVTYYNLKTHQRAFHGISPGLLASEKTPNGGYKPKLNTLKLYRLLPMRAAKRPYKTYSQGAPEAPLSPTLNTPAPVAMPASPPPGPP

GST-ZBTB4 Y351A = target: T10, GST-ZBTB4 Y351A (Homo sapiens, UniProt Q9P1Z0 268-460, Y351A); experiment: EMSA
T10 sequence: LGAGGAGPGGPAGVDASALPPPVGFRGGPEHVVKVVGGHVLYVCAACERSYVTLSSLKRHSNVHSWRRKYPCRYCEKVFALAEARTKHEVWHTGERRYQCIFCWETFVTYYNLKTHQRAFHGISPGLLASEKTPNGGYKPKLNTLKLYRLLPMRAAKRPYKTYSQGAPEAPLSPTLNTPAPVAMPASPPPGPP

GST-ZBTB4 L348A = target: T11, GST-ZBTB4 L348A (Homo sapiens, UniProt Q9P1Z0 268-460, L348A); experiment: EMSA
T11 sequence: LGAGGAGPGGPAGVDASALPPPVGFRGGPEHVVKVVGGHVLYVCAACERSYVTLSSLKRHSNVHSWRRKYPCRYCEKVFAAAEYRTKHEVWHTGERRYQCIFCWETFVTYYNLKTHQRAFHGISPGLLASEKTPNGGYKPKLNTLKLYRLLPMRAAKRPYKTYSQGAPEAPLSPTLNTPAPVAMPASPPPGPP

GST-ZBTB4 zinc fingers [4] = target: T1, GST-ZBTB4 zinc fingers; experiment: competition; remark: listed apart in the source

B1: meZ4BS hemimethylated, upper strand (dsDNA)
DNA 1: GTAGAAGTTCCCGCCATCACTATTG
DNA 2: CAATAGTGATGGCGGGAACTTCTAC
modifications: 5mC at strand 1 C12 only
Does B1 bind (GST-ZBTB4 zinc fingers [1])?
Result: binds

B2: S15 (CCGCCATC) (dsDNA)
DNA 1: ACCCAACCGCCATCTGGGT
DNA 2: ACCCAGATGGCGGTTGGGT
Which results are given for B2?
binding result (GST-ZBTB38 zinc fingers): no binding; binding result (GST-ZBTB4 zinc fingers [2]): binds; binding result (GST-Kaiso zinc fingers): binds

B3: Non-selected (dsDNA)
DNA 1: ACCAAGCAACACACCCCGT
DNA 2: ACGGGGTGTGTTGCTTGGT
Does B3 bind (GST-ZBTB4 zinc fingers [2])?
Result: no binding

B4: MS20 unmethylated (ACGCTTG) (dsDNA)
DNA 1: AAGGCCAACGCTTGTGGT
DNA 2: ACCACAAGCGTTGGCCTT
Does B4 bind (GST-ZBTB4 zinc fingers [2])?
Result: no binding

B5: TG/GC mismatch (dsDNA)
DNA 1: GTAGAAGTTCCTGCCATCACTATTG
DNA 2: CAATAGTGATGGCGGGAACTTCTAC
Does B5 bind (GST-ZBTB4 E350A)?
Result: binds

B6: Z4BS (ZBS, CTGCCATC; = TG/AC) (dsDNA)
DNA 1: GTAGAAGTTCCTGCCATCACTATTG
DNA 2: CAATAGTGATGGCAGGAACTTCTAC
Does B6 bind (GST-ZBTB4 K354A)?
Result: binds

Does B6 bind (GST-ZBTB4 E350A)?
Result: binds

Does B6 bind (GST-Kaiso E535A)?
Result: binds

Does B6 bind (GST-ZBTB4 T376A)?
Result: binds

Does B6 bind (GST-ZBTB4 R326A)?
Result: no binding

Does B6 bind (GST-ZBTB4 zinc fingers [3])?
Result: binds

B7: S2 (CTGCCATC) (dsDNA)
DNA 1: ACCCACCTGCCATCTAGGT
DNA 2: ACCTAGATGGCAGGTGGGT
Does B7 bind (GST-ZBTB38 zinc fingers)?
Result: no binding

Does B7 bind (GST-ZBTB4 zinc fingers [2])?
Result: binds

Does B7 bind (GST-Kaiso zinc fingers)?
Result: binds

B8: meZ4BS (CMGCCAT) (dsDNA)
DNA 1: GTAGAAGTTCCCGCCATCACTATTG
DNA 2: CAATAGTGATGGCGGGAACTTCTAC
modifications: 5mC at strand 1 C12 and strand 2 C13
What does the source list for B8?
binding result (GST-ZBTB4 K354A): binds; binding result (GST-ZBTB38 zinc fingers): binds; binding result (GST-ZBTB4 S323A): binds; binding result (GST-ZBTB4 Y351A): binds; binding result (GST-ZBTB4 L348A): binds; binding result (GST-Kaiso E535A): no binding; binding result (GST-ZBTB4 T376A): binds; binding result (GST-ZBTB4 R326A): no binding; binding result (GST-ZBTB4 zinc fingers [4]): binds

B9: MS20 methylated (ACGCTTG) (dsDNA)
DNA 1: AAGGCCAACGCTTGTGGT
DNA 2: ACCACAAGCGTTGGCCTT
modifications: 5mC at CpG, both strands (SssI)
Does B9 bind (GST-ZBTB4 zinc fingers [2])?
Result: binds

B10: MS8 methylated (CCGCTAT) (dsDNA)
DNA 1: ACCCAAACCGCTATCCTT
DNA 2: AAGGATAGCGGTTTGGGT
modifications: 5mC at CpG, both strands (SssI)
Does B10 bind (GST-ZBTB4 zinc fingers [2])?
Result: binds
